According to patent US4388232A, “Method of producing plasma fractions free of side-effects using fast-reacting antithrombin” (Immuno Aktiengesellschaft fur Chemisch Medizinische Produkte, priority 1979, dated 1983):

Tested on: NMRI mice
Assay: LD50 test (toxicity of a preparation)
Format: in vivo, mouse (NMRI)
Details: intravenous
Method: The LD50 -test serves for determining the toxicity of a preparation. LD50 is the dose at which 50% of the animals die under experimental conditions. The preparation is intravenously injected in at least three dosages into ten NMRI ([…]) mice each, having a minimum body weight of 20 g. After an observation time of 7 days the living animals per dosage group are counted. The LD50 is calculated in accordance with Wilson and Worcester, Proc. Nat. Acad. Sci. U.S.A. 29, 114 (1943).

With “Example 11: C1-esterase inhibitor, prepared with antithrombin III and heparin” the “tolerance in LD50 test” value (7 days observation) was “excellently tolerated” and the LD50 (7 days observation, 5,300 = maximum injectable amount C1-esterase-inhibitor) was > 5,300 units per kg body weight.
